The supplement of paper PMC9170038

Test system: K4 kissing-loop RNA reporter
Test: apparent KD of K4 kissing-loop reporter; higher = weaker reporter binding
Details: Eterna round: R107
Procedure: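 RNA-MaP round R107: designed RNA switches with theophylline, tryptophan, arginine or FMN aptamers are transcribed on-chip within common flanks. They are titrated with a labelled K4 kissing-loop RNA reporter in RNA-MaP buffer (100 mM Tris pH 7.5, 80 mM KCl, 4 mM MgCl2), without ligand or with the indicated ligand. Median apparent KD per design.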

[1] = input ligand: theophylline 20 uM
[2] = input ligand: tryptophan 2.4 mM
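Also: bound reporter read as fluorescence of individual clusters on recovered sequencing chips by microscopy, with normalized cluster intensities fitted with a binding model.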

| Sequence | apparent KD of K4 kissing-loop reporter (input ligand: FMN 200 uM) [nM] | apparent KD of K4 kissing-loop reporter (input ligand: arginine 13.2 mM) [nM] | apparent KD of K4 kissing-loop reporter (input ligand: none) [nM] | apparent KD of K4 kissing-loop reporter [1] [nM] | apparent KD of K4 kissing-loop reporter [2] [nM] |
| --- | --- | --- | --- | --- | --- |
| GGUCGAGUGAUGUUCGAUGUAGUGCAUUCAGAGGAUAUAGGAUGGGCUAGAAGGCUGAAAGGUGCUUCGAGUGAUGUUCGAGGAU [Exclusion FMN A GF 3] | 105 | 80.7 | 126 | 115 | 89 |
| UAGUGUCGCGCAGGAUAUACUGAUUGGAGUGAUGUUCCAAACAUGCACGUGUGACUUUUACAAGAAGUAGAAGGGCGUGAGACAU [Exclusion FMN B GF 22] | 303 | 200 | 184 | 198 | 179 |
| AGAGUUAUGCGAGGAUAUGCAGUUAGUACUCAAAGAGUACUAACGGCAGAGUGAUGUUCUGUGAAAGCAGAAGGUGCAUAACUCA [Omei KL FMN B SS B v8] | 195 | 837 | 1370 | 857 | 923 |
| GCAUCCUAUGCAGGAUAUUAGCAUUUGAGUGAUGUUCAGACUAGCGAAAGCUAGUCAAUUGCUGGUUAAGAAGGGCAUAGGAUGC | 891 | 750 | 971 | 902 | 689 |
| AAAGUUGAAAGUGAUACCAGACGAGUGAAGGGAAGUAAUUAAUUUGGAGUGAUGUUCCGCGUCCCUUGGCAGCAUUUUGUAAUUU [Exclusion Theophylline B GF 24] | 166 | 195 | 189 | 186 | 153 |
| AAUAAUGGAGUGAUGUUCCAGUAAUGGGAUACCAGACAUGAAAAUGUCCCUUGGCAGCUCAAAGGUCUAGUGAUGUUAUAAAGAA [KL-SSTheo-A6] | 475 | 510 | 554 | 401 | 377 |
| AACGUUUUGAGAAGGAGCGCGUUAAGCAGUGAUGUUGCUUUAUUAUAUUUACUACAUAUUUCGCAGGUAGGUCGCUCAAUACGUA [JR_Nu_SSArginiB_Sub025] | 154 | 153 | 148 | 152 | 123 |
| GUAGGAUGAGGAGGAGGAUGAAAUACUGAAGGAGCGCAGAGAAAUGCAGGUAGGUCGCGGUAAGGAAGUAUAGUGAUGUUAUAUA [#07 K4 Arginine A Same State] | 414 | 367 | 664 | 755 | 449 |
| GUACGCUCUCGAGUGAUGUUCGGUAAUCGCGAGGAUAUCGCUUUUGCGAGAAGGCGCGGAAUGAGGAAACUCGUUCUGAGUGUAC [FMN A 23] | 364 | 444 | 461 | 637 | 715 |
| AAAUUUAUAUUAGAUACCAGUUUAUUGGAUGUAAAUUAUGACAUGAGUGAUGUUCAUGUAAGCCCUUGGCAGCUGGUAUGGGUUU [KL-XTheo-B22] | 132 | 119 | 127 | 124 | 114 |
| AAGUUAUGAUCUGAUACCAGACUUUAUCUUGUUUAUAAGUCAAGUGAUGUUUGACUAUUAGUCCCUUGGCAGCAGUAUUGUUUAA [#18 K4 Theophylline B Same State] | 263 | 268 | 302 | 228 | 255 |
| UCGGCGGAGUGAUGUUCCUAUGUCCAAGAUACCAGUCUAUGAACGGACCCUUGGCAGCUUCCAUUAGGUUACUAUUUAGACUCAU [theeternabot_exclusion_KL_Theo_A_10] | 190 | 227 | 215 | 248 | 166 |
| UGACAUUGCUCAGAUACCAGACCUGAGGAACACCCAGGUGCCAAAACGUACUAAAUAAAGGUCCCUUGGCAGCUGAGCAAUGUCU [TheoBX 13] | 45.7 | 35.1 | 35.4 | 77.6 | 59.7 |
| CAGCGGAGUGAUGUUCUGCUUACUGCGGAUACCAGCUUCGCCAGAGGCCCUUGGCAGCCGGGCGGCUCAGUGAUGUUGGGUUGCU [Same State Theophylline A GF 15] | 536 | 559 | 876 | 920 | 664 |
| UUUUUCGCGUUUGAUACCAGCAGAGUUGUUCUUGUCUGGAACAUGAGUGAUGUUCAUGUCUGCCCUUGGCAGCAAACGGGAGAAG [KL-XTheo-B12] | 122 | 111 | 110 | 114 | 116 |
| AUGUUGAGCGGAAGGAGCGGCUGAACCAGUGAUGUUGGUUAAUCCAAGUGAUGUUGGAAAAGCCAGGUAGGUCGCCGCUUUAUGU [Same State Arg B GF 2] | 821 | 534 | 902 | 896 | 722 |
| GGUGACGGCCAGGAGUGAUGUAUAGAAUAGCGAGGACCGGUACGGCCGCCACUCGUGAAGAAAAGGGAGUGAUGUUCCGUAAUGG [Kazoo B] | 380 | 284 | 450 | 229 | 302 |
| AGCAAAACCAAAGGAUAUUGGCAGUCGAUGUACCAUGUUCCCGUAGCAGGUUGAGUGAUGUUUAAGCAAGAAGGUUGGCGUUUGG [theeternabot_exclusion_KL_FMN_B_12] | 560 | 302 | 436 | 457 | 368 |
| AGGUACAAAAGUACCGCUAGAUCCACGGAAGGAGCGCGCGAAAGCGCAGGUAGGUCGCCGGGCAGUGAUGUUGCCGGAUCUAGCA [Omei KL Arginine A SS A v7] | 134 | 138 | 126 | 165 | 144 |
| ACGUCACGUAUACUGGUGGUUUCGAUCGAUACCAGUAGCGAGAGUUACCCUUGGCAGCGACAUGAGUGAUGUUCAUGUAUGAAGA [KL-XTheo-A1 #analogue] | 100 | 111 | 102 | 113 | 95.7 |
| UGACUGGACUGAAGGAGCGGGCGAGACAAAGUCUCGAACUCGUAGUGAUGUUAUGAAAUAACCCAGGUAGGUCGCAGUCUAGUCU | 1130 | 684 | 892 | 868 | 789 |

| Sequence | apparent KD of K4 kissing-loop reporter (input ligand: FMN 200 uM) [nM] | apparent KD of K4 kissing-loop reporter (input ligand: arginine 13.2 mM) [nM] | apparent KD of K4 kissing-loop reporter (input ligand: none) [nM] | apparent KD of K4 kissing-loop reporter [1] [nM] | apparent KD of K4 kissing-loop reporter [2] [nM] |
| --- | --- | --- | --- | --- | --- |
| GGCGGCUGCGCGGAAGCGCAGCCGGCCGAUACCAGCGCGACGGCGCGCCCUUGGCAGCGGCGCCGAGUGAUGUUCGGCCUGCCGU [#2 Same State - Theophylline A Attempt #21 (HarryS)] | 122 | 82.2 | 95.3 | 124 | 117 |
| ACAUGACGUGCGCCCGUCAUGAAACGUGCAAAGGAUAUUCCGUUUUGAAGAAGGUUGCGGUAGUGUAGUGAUGUUGCUCCGCCGU [theeternabot_sameState_KL_FMN_A_11] | 512 | 360 | 343 | 315 | 347 |
| UAAGAAUAGCAUGCAGUGAUGUUGCAUGUCCGAGGACCGGUACGGCCGCCACUCGAGUCCUCGAACAUGCACCGAGGAAUAACAA [#19 K4 Tryptophan A Same State] | 108 | 79.6 | 109 | 107 | 124 |
| GCAGUCAAUCAACCACGAAAGUGGAUGGAUACCAGCCCGAAACCGGGCCCUUGGCAGCCAGUGAUGUUGGAAGACUGCUUUAAAA [#SwitchBubble 15 #K4Late] | 974 | 256 | 607 | 219 | 337 |
| CGAGCUUCCUGGGAUACCAGUCGGAGUCUCAGAGCUCGGAGUGAUGUUCUGGGAUGUUUCGGCCCUUGGCAGCUCUGGGACUCCU [#2 Exclusion - Theophylline B Attempt #20 (HarryS)] | 1000 | 576 | 767 | 883 | 797 |
| AAGUGAUGUUGUAGUGAUGUUGUGAUGUUGCAGGAUAUAUAGUGAUGUAGAAGGGUAAGUACUCAUGUUGUUAGUAAGUGAUGUU [bttutmullin] | 91.5 | 43.2 | 81.7 | 63.7 | 74.2 |
| GGGUCUGCCGGAAGGAGCGCACUAUGGAGUGAUGUUCCAUGACCGCACAGCUUGCGGUCAGUGCAGGUAGGUCGCCGGUAGCGUU [Inesor] | 163 | 154 | 175 | 177 | 162 |
| UACUAUAGUGAUGUUAUAGAUAAACCAGAUACCAGUGUAACAUAACACCCUUGGCAGCUGAUGAGGGAACAUAUGAAUGCAUAUG [AstrosSSTHe-A#5newdesignED5.11] | 196 | 166 | 179 | 178 | 163 |
| GUAUCGCUAGGAGGAUAUUCCAUUUUACAUAGAAAUGGCUAUGCGAAGUGAUGUUUCGAUUUACGGGAAGAAGGCCUAGUGAUAC [FMN B 22] | 160 | 148 | 148 | 177 | 155 |
| CAGUUCCGUAGUGAUGUUACGAUCUCUGAUACCAGACAACUCUAAGUCCCUUGGCAGCAGUCAUUUUGCUUAAUAUUUACUCAAA [#08 K4 Theophylline A Exclusion] | 126 | 139 | 136 | 170 | 116 |
| GCAGUGAUGUUGCAAAAUGUCUGUGGUAGUCGAGGACCGGUACGGCCGCCACUCGGUGAGAACCUGCUAAUACAUCGAUAAGUGA [IX] | 706 | 580 | 627 | 810 | 666 |
| GGAUGCAUUUUGGAUACCAGUCUAGUGAUGUUAGACUGAUAAUAACGGGCAGCGUUGGCAGACCCUUGGCAGCCAAAAUACUUAA [theeternabot_exclusion_KL_Theo_B_33] | 62.2 | 64.6 | 54.8 | 63.9 | 58.9 |
| AGAAACUUGUAUACAGGGCAUGCCAGAGAUACCAGUCAAAUGGAAGGCCCUUGGCAGCUCAGGCGAGUGAUGUUCGCAGGCUGAC [Exclusion Theophylline A GF 20] | 132 | 113 | 142 | 145 | 105 |
| CGCAAGCAGCCAGUGAUGUUGGCCGCCUUGCGAGGACCGGUACGGCCGCCACUCGAAGGCGGCUACUAGUAAACCGCCUAACGGA [KL-XTryp-A17] | 105 | 91.1 | 95.6 | 81.2 | 184 |
| GGAAGGAAGGAAACCAACCAACCAACCGAUACCAGCGGAAGAGAACGCCCUUGGCAGCGGAGAAAGCCAGUGAUGUUGGAAAGAA | 324 | 224 | 402 | 300 | 318 |
| GUCUUACUAUAGGAUACCAGCAUGCAAGGAGUGAUGUUCCCGUCAUAUGAGGAGUACCGCUGCCCUUGGCAGCCUCUUGUAAGUU [theeternabot_sameState_KL_Theo_B_1] | 502 | 253 | 353 | 411 | 316 |
| UUGUUUGGUUGAGAGGUUGGGCGAGAUGAUACCAGUAGAUAAGAAUACCCUUGGCAGCAUAAGAAAGAUAUAGUGAUGUUGUAUA [SSTheophA.N] | 566 | 386 | 553 | 525 | 478 |
| AUGCGCGCGGCGGCCGCCACUCGCAUGAGAGUGAUGUUCUCGCCGUGCCCGCAAGGGUGCGGUGUGAGGACCGGGCCGGGCUGCG [#2 Same State - Tryptophan B Attempt #19 (HarryS)] | 562 | 143 | 194 | 154 | 302 |
| UGUCAUUGGUCGGAUACCAGUUGAUGACGAAUACGUCAACUGGAGUGAUGUUCCUAAAACAACCCUUGGCAGCCGACCGAUGACU [MAT - Same State Theophlline B - Mod of Eli - D1] | 937 | 641 | 852 | 666 | 761 |
| CGUUUAUAGCAGGAUACCAGUACCCAUUAUGUACGUUUAUAGUAGAGUGAUGUUCUAAAGUACCCUUGGCAGCUUCCUGUGUCCC [ExTheophylB.Ab] | 163 | 178 | 190 | 198 | 150 |
| UCGAGUGAUGUUCGAUUUCAGUGAAGAGAUACCAGCCGCAGUGUAGGCCCUUGGCAGCUCGGCUAUUAUGACAUAUGCAGUUUAG [theeternabot_sameState_KL_Theo_A_29] | 125 | 121 | 119 | 122 | 80 |
